Results: paper PMC5660092

Target: Bcl-2 (UniProt P10415)
Assay: co-IP of Flag-Beclin 1
Settings: reference: wild type; sites S90

Substance: Beclin 1 (from UniProt Q14457) S90A
- binding against the reference: stronger
